Experimental data: US20080286264A1 (Dana-Farber, published 2008)

Biological target: p53(293-393) (human, UniProt P04637 293-393)
Test: co-IP with anti-p53 from transfected U2OS cells, immunoblot with anti-MUC1 C-ter

p53(293-393), sequence (P04637 293-393): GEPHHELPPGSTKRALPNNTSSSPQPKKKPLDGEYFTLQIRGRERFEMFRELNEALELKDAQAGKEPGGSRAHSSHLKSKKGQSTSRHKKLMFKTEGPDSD

binding result: binds
B1: Myc-MUC1-CD(1-72) (other)
chain: CQCRRKNYGQLDIFPARDTYHPMSEYPTYHTHGRYVPPSSTDRSPYEKVSAGNGGSSLSYTNPAVAATSANL
notes: Transiently expressed in U2OS cells; not shown: Myc tag
